Measurements: patent US20220411483A1 (Chugai, published 2022)
Where a chain is given by its changes, count along the chain named. Names and notes keep the numbering of the source.

B1: IL6R-P625/IL6R-L (antibody, human IgG1, kappa)
heavy: QVQLQESGPGLVKPSETLSLTCAVSGHSISHDHAWSWVRQPPGEGLEWIGFISYSGITNYNPSLQGRVTISRDNSKNTLYLQMNSLRAEDTAVYYCARSLARTTAMDYWGEGTLVTVSSASTKGPSVFPLAPSSKSTSGGTAALGCLVKDYFPEPVTVSWNSGALTSGVHTFPAVLQSSGLYSLSSVVTVPSSSLGTQTYICNVNHKPSNTKVDKKVEPKSCDKTHTCPPCPAPDKLGGDSVFLFPPKPKDTLMISRTPEVTCVVIDVAEEDGEVKFNWYVDGVEVHNAKTKPREEQYNSTYRVVSVLTVLHQDWLNGKEYKCKVSNKALPAPIEKTISKAKGQPREPQVYTLPPSRDELTKNQVSLTCLVKGFYPSDIAVEWESNGQPENNYKTTPPVLDSDGSFFLYSKLTVDKSRWQQGNVFSCSVMHEALHNHYTQKSLSLSP
light: not shown
B2: IL6R-P626/IL6R-L (antibody, human IgG1, kappa)
heavy: B1 heavy with K236R
light: not shown
B3: IL6R-P629/IL6R-L (antibody, human IgG1, kappa)
heavy: B1 heavy with K236L, G239K
light: not shown
B4: IL6R-P631/IL6R-L (antibody, human IgG1, kappa)
heavy: B1 heavy with K236L, D267N
light: not shown
B5: IL6R-P636/IL6R-L (antibody, human IgG1, kappa)
heavy: B1 heavy with K236L, A269R
light: not shown
B6: IL6R-P652/IL6R-L (antibody, human IgG1, kappa)
heavy: B1 heavy with K236L, G239D, A269Y, Y298D, A332R, P398M
light: not shown
B7: IL6R-P665/IL6R-L (antibody, human IgG1, kappa)
heavy: B1 heavy with K236L, G239D, Y298D, N299A, A332R, P398M
light: not shown
notes: also called IL6R-P665/1L6R-L
B8: IL6R-BP267/IL6R-L (antibody, human IgG1, kappa)
heavy: B1 heavy with K236L, G239D, I266V, A269S, K441E
light: not shown
notes: IL6R-BF648 with E233D/G237D/H268E/P271G
B9: IL6R-BP318/IL6R-L (antibody, human IgG1, kappa, name in EU numbering)
heavy: B1 heavy with K236L, G239D, I266V, D267K, A269S, K441E
light: not shown
B10: IL6R-BP321/IL6R-L (antibody, human IgG1, kappa, name in EU numbering)
heavy: B1 heavy with K236L, G239D, I266V, D267N, A269S, K441E
light: not shown
B11: IL6R-BP324/IL6R-L (antibody, human IgG1, kappa, name in EU numbering)
heavy: B1 heavy with K236L, G239D, I266V, D267R, A269S, K441E
light: not shown
B12: IL6R-BP325/IL6R-L (antibody, human IgG1, kappa, name in EU numbering)
heavy: B1 heavy with K236L, G239D, I266V, D267S, A269S, K441E
light: not shown
B13: IL6R-BP355/IL6R-L (antibody, human IgG1, kappa, name in EU numbering)
heavy: B1 heavy with K236L, G239D, I266V, A269K, K441E
light: not shown
B14: IL6R-BP361/IL6R-L (antibody, human IgG1, kappa, name in EU numbering)
heavy: B1 heavy with K236L, G239D, I266V, A269R, K441E
light: not shown
B15: IL6R-PD023/IL6R-L (antibody, human IgG1, kappa)
heavy: B1 heavy with D235E, K236L, M254Y, I266V, A269S, E270H, G273P, A332H, N436Y
light: not shown
B16: IL6R-PD024/IL6R-L (antibody, human IgG1, kappa)
heavy: B1 heavy with D235E, K236L, M254Y, I266V, A269S, E270H, G273P, A332Y, N436Y
light: not shown
B17: IL6R-PD047/IL6R-L (antibody, human IgG1, kappa)
heavy: B1 heavy with D235E, K236L, L237F, M254Y, I266V, A269S, E270H, G273P, N436Y
light: not shown
B18: IL6R-PD089/IL6R-L (antibody, human IgG1, kappa)
heavy: B1 heavy with D235E, K236L, G239Q, M254Y, I266V, A269S, E270H, G273P, N436Y
light: not shown
B19: IL6R-P694/IL6R-L (antibody, human IgG1, kappa)
heavy: B1 heavy with K236L, A269R, Y298E
light: not shown
B20: IL6R-P699/IL6R-L (antibody, human IgG1, kappa)
heavy: B1 heavy with K236L, A269R, E270P
light: not shown
notes: Printed H238P read as H268P
B21: IL6R-P702/IL6R-L (antibody, human IgG1, kappa)
heavy: B1 heavy with K236L, F243M, A269R
light: not shown
B22: IL6R-P712/IL6R-L (antibody, human IgG1, kappa)
heavy: B1 heavy with K236L, A269R, E270P, Y298E
light: not shown
B23: IL6R-P730/IL6R-L (antibody, human IgG1, kappa)
heavy: B1 heavy with K236L, G239Q, A269R, E270P, Y298E
light: not shown

Target: T1, FcgRIIb (human, UniProt P31994 43-217)
T1 construct: extracellular domain; also called FcγRIIb
T1 sequence (looked up): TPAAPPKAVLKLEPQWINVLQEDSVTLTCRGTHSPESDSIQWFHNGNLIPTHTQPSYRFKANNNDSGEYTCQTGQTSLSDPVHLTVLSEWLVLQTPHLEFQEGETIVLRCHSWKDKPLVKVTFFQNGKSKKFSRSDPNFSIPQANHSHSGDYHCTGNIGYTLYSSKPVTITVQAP
Assay: SPR, amount bound per captured antibody

Binder | Relative FcgRIIb-binding Activity [IL6R-G1d/IL6R-L=100]
B1 | 141
B2 | 129
B3 | 164
B4 | 110
B5 | 120
B6 | 149
B7 | 121

Target: T2, FcgRIIaR (human, UniProt P12318 34-217)
T2 construct: extracellular domain; also called FcγRIIa R type; FcγRIIa (R type)
T2 sequence (looked up): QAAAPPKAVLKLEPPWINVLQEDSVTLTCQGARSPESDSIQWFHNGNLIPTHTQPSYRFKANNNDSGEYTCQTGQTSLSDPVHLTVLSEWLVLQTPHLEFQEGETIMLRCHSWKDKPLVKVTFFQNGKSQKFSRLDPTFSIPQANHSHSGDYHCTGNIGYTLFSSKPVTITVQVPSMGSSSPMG
Assay: SPR, amount bound per captured antibody

Binder | Relative FcgRIIaR-binding Activity [IL6R-G1d/IL6R-L=100]
B1 | 26.8
B2 | 24.4
B3 | 29.9
B4 | 26.7
B5 | 13.8
B6 | 27.5
B7 | 15

Target: T1, FcgRIIb
Assay: SPR, amount bound per captured antibody
Remark: another data set of the same source

Binder | Relative FcgRIIb-binding Activity [IL6R-BP267/IL6R-L=100]
B8 | 100
B9 | 2.3
B10 | 31.7
B11 | 3.2
B12 | 21
B13 | 14.4
B14 | 27.7

Target: T2, FcgRIIaR
Assay: SPR, amount bound per captured antibody
Remark: another data set of the same source

Binder | Relative FcgRIIaR-binding Activity [IL6R-BP267/IL6R-L=100]
B8 | 100
B9 | 4.3
B10 | 16.3
B11 | 3.7
B12 | 11.6
B13 | 11.6
B14 | 17.3

Target: T3, FcγRIIa R type extracellular domain, His tag (human, UniProt P12318 34-217)
T3 construct: extracellular domain; also called FcgRIIaR
T3 sequence (looked up): T2 sequence (looked up)
Assay: SPR, bound amount per captured antibody

Binder | Relative FcgRIIaR-binding Activity
B15 | 73.9 % of IL6R-F652/IL6R-L
B16 | 60 % of IL6R-F652/IL6R-L
B17 | 89.9 % of IL6R-F652/IL6R-L
B18 | 65 % of IL6R-F652/IL6R-L

Target: T4, FcγRIIb extracellular domain, His tag (human, UniProt P31994 43-217)
T4 construct: extracellular domain; also called FcgRIIb
T4 sequence (looked up): T1 sequence (looked up)
Assay: SPR, bound amount per captured antibody

Binder | Relative FcgRIIb-binding Activity
B15 | 102 % of IL6R-F652/IL6R-L
B16 | 74.4 % of IL6R-F652/IL6R-L
B17 | 95.4 % of IL6R-F652/IL6R-L
B18 | 66 % of IL6R-F652/IL6R-L

Target: T1, FcgRIIb
Assay: SPR (Biacore)

Binder | Relative FcgRIIb-binding Activity
B19 | 1.83 KD(G1d)/KD(variant)
B20 | 1.26 KD(G1d)/KD(variant)
B21 | 1.27 KD(G1d)/KD(variant)
B22 | 1.52 KD(G1d)/KD(variant)
B23 | 0.504 KD(G1d)/KD(variant)

Target: T5, FcgRIa (human, UniProt P12314 16-292)
T5 construct: also called FcγRIa; FcγRI
Assay: SPR (Biacore)

T5 sequence (P12314 16-292): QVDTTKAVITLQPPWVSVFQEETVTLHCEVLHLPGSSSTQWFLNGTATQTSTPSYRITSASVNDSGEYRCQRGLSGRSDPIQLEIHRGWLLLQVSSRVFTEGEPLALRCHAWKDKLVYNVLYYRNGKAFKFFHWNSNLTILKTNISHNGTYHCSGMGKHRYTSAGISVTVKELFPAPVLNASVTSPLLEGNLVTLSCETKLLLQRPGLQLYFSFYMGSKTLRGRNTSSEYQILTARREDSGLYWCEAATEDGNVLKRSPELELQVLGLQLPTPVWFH

Binder | Relative FcgRIa-binding Activity
B19 | 0.0008 KD(G1d)/KD(variant)
B20 | 0.0005 KD(G1d)/KD(variant)
B21 | 0.0006 KD(G1d)/KD(variant)
B22 | 0.0005 KD(G1d)/KD(variant)
B23 | 0.0002 KD(G1d)/KD(variant)

Target: T6, FcgRIIIaV (human, UniProt P08637 17-208)
T6 construct: extracellular domain; also called FcγRIIIa V type
Assay: SPR (Biacore)

T6 sequence (P08637 17-208 F176V): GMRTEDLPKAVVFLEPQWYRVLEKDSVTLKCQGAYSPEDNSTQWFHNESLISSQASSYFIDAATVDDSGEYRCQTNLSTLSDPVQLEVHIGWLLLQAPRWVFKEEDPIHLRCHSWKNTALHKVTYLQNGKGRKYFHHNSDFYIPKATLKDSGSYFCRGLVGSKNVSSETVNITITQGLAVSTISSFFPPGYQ

Binder | Relative FcgRIIIaV-binding Activity
B19 | 0.007 KD(G1d)/KD(variant)
B20 | 0.005 KD(G1d)/KD(variant)
B21 | 0.008 KD(G1d)/KD(variant)
B22 | 0.004 KD(G1d)/KD(variant)
B23 | 0.005 KD(G1d)/KD(variant)

Target: T7, FcgRIIaH (human, UniProt P12318 34-217)
T7 construct: extracellular domain; also called FcγRIIa H type
T7 sequence (looked up): T2 sequence (looked up) with R134H
Assay: SPR (Biacore)

Binder | Relative FcgRIIaH-binding Activity
B19 | 0.005 KD(G1d)/KD(variant)
B20 | 0.004 KD(G1d)/KD(variant)
B21 | 0.006 KD(G1d)/KD(variant)
B22 | 0.003 KD(G1d)/KD(variant)
B23 | 0.003 KD(G1d)/KD(variant)

Target: T2, FcgRIIaR
Assay: SPR (Biacore)

Binder | Relative FcgRIIaR-binding Activity
B19 | 0.02 KD(G1d)/KD(variant)
B20 | 0.022 KD(G1d)/KD(variant)
B21 | 0.023 KD(G1d)/KD(variant)
B22 | 0.017 KD(G1d)/KD(variant)
B23 | 0.013 KD(G1d)/KD(variant)

Target: T1, FcgRIIb
Assay: SPR (Biacore)
Remark: another data set of the same source

Binder | Relative FcgRIIb-binding Activity
B1 | 3.06 KD(G1d)/KD(variant)
B2 | 1.9 KD(G1d)/KD(variant)
B3 | 7.97 KD(G1d)/KD(variant)
B4 | 1.16 KD(G1d)/KD(variant)
B5 | 1.77 KD(G1d)/KD(variant)
B6 | 4.18 KD(G1d)/KD(variant)
B7 | 1.6 KD(G1d)/KD(variant)

Target: T5, FcgRIa
Assay: SPR (Biacore)
Remark: another data set of the same source

Binder | Relative FcgRIa-binding Activity
B1 | 0.0007 KD(G1d)/KD(variant)
B2 | 0.0004 KD(G1d)/KD(variant)
B3 | 0.1 KD(G1d)/KD(variant)
B4 | 0.03 KD(G1d)/KD(variant)
B5 | 0.0007 KD(G1d)/KD(variant)
B6 | 0.0005 KD(G1d)/KD(variant)
B7 | 0.0002 KD(G1d)/KD(variant)

Target: T6, FcgRIIIaV
Assay: SPR (Biacore)
Remark: another data set of the same source

Binder | Relative FcgRIIIaV-binding Activity
B1 | 0.005 KD(G1d)/KD(variant)
B2 | 0.005 KD(G1d)/KD(variant)
B3 | 0.007 KD(G1d)/KD(variant)
B4 | 0.007 KD(G1d)/KD(variant)
B5 | 0.008 KD(G1d)/KD(variant)
B6 | 0.005 KD(G1d)/KD(variant)
B7 | 0.005 KD(G1d)/KD(variant)

Target: T7, FcgRIIaH
Assay: SPR (Biacore)
Remark: another data set of the same source

Binder | Relative FcgRIIaH-binding Activity
B1 | 0.005 KD(G1d)/KD(variant)
B2 | 0.005 KD(G1d)/KD(variant)
B3 | 0.01 KD(G1d)/KD(variant)
B4 | 0.01 KD(G1d)/KD(variant)
B5 | 0.006 KD(G1d)/KD(variant)
B6 | 0.006 KD(G1d)/KD(variant)
B7 | 0.002 KD(G1d)/KD(variant)

Target: T2, FcgRIIaR
Assay: SPR (Biacore)
Remark: another data set of the same source

Binder | Relative FcgRIIaR-binding Activity
B1 | 0.051 KD(G1d)/KD(variant)
B2 | 0.041 KD(G1d)/KD(variant)
B3 | 0.047 KD(G1d)/KD(variant)
B4 | 0.048 KD(G1d)/KD(variant)
B5 | 0.023 KD(G1d)/KD(variant)
B6 | 0.051 KD(G1d)/KD(variant)
B7 | 0.025 KD(G1d)/KD(variant)
